Data on one molecule can be found in publication PMC4894380.

The data set deals with MqsA (Escherichia coli (strain of the protein …, UniProt Q46864 1-131)). Put plainly: EMSA; shift at 50-, 100- and 200-fold excess MqsA; 10 mM Tris-HCl pH 7.5, 50 mM KCl, 1 mM DTT, 1 ug poly(dI.dC), 30-50 fmol labeled probe, ambient temperature, 1 h; 6% gel, 0.5x TBE. On the technique in general: In EMSA bound probe runs differently from free probe, usually more slowly.
MqsA (Escherichia coli, sequence (Q46864 whole entry): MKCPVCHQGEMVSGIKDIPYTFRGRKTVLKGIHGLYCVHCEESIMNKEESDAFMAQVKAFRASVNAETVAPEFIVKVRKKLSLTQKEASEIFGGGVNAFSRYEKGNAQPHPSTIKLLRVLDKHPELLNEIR

B1: p-csgD native palindrome 30-mer (dsDNA)
DNA 1: ACTTAATAAAACCTTAAGGTTAACATTTTA
DNA 2: TAAAATGTTAACCTTAAGGTTTTATTAAGT
As for B1, the binding result is listed as “binds”.
